Experimental data reported in PMC7070470, “Thermostable Tannase from Aspergillus Niger and Its Application in the Enzymatic Extraction of Green Tea” (Molecules, 2020).

Substrate: CCCOC(=O)c1cc(O)c(O)c(O)c1
Experiment: purified protein
Assay type: biochemical, Aspergillus niger
Details: standard assay condition

B1: rAntan1 (tannase from A. niger FJ0118, Antan1 without signal peptide) (Aspergillus niger CBS 513.88) (protein)
chain: ATPSTLAELCTDSIVKAALPPSEFIQGITIDSDSVTTEVVTNSSVSSEFYPSATINYCNVTFAYSHDGIDGDQVLLEIWLPAPTDFQNRWLSTGGGGYAINSGDQSLPGGVMYGAASGMTDGGFGGFSNNADTAMLLANGTLDYETLYMFAYKAHRELSLIGKALTRNVYGMSDSDKLYAYYQGCSEGGREGWSQVQRFGDEWDGAIIGAPAFRWSFQQTQHLYSNVVEKTLDYYPPPCELDKIVNETIAACDAMDGKVDWVVARTDLCLLDFDISTIEGKPYSCAASRGTPAQNGTVSAKGIEVAKTIINGLHDSQGRRVYFSYQPTAAFDDAETQYNSTTGQWGLDIDQLGGEYIALLVDKNGTTLDSLDGVTYDTLKDWMISGLQEYYSTLQTTWPDLTPFHEAGGKVIHFHGDADFSIPTAASIRYWESVRSIMYPNQDYNSSAEALNEWYRLYTVPGAGHCATNDAMPNGPFPQTNMAVMIDWVENGVVPTTLNATVLQGENEGQNQQLCAWPLRPLWTNNGTTMECVYNQRSIDSWHYDLDAVPMPVY
notes: mature form, predicted 20-residue signal peptide removed; secreted from Pichia pastoris SMD1168 (pPIC9K), DEAE-Sepharose purified; 1725 bp ORF, 575 residues printed
Protein B1 has a Km of 73 µM and a kcat (substrate range printed as 0.05–1.0 M) of 1060 s⁻¹.
